{"source": "patent US20210139588A1", "key": {"[1]": {"biological_target": "4NQ mutant (unglycosylated) PD-1 expressed on 293T cells (PD-1-Flag) (human) (UniProt Q15116)", "sequence (Q15116 other isoform, or with tags, fused parts or gaps mutant)": "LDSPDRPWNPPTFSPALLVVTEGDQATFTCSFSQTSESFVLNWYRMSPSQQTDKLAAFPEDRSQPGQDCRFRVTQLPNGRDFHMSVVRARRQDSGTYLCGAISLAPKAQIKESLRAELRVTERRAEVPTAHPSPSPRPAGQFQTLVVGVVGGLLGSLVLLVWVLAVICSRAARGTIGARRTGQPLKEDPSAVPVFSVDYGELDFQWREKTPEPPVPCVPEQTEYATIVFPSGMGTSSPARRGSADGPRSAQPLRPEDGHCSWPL", "assay": "flow cytometry on 293T cells expressing the PD-1 form, labeled secondary antibody; control antibody"}, "[2]": {"biological_target": "N116Q mutant PD-1 expressed on 293T cells (PD-1-Flag) (human) (UniProt Q15116)", "sequence (Q15116 25-288 N116Q)": "as the sequence (Q15116 other isoform, or with tags, fused parts or gaps mutant) above, with Q25N, Q34N, Q50N counted along it", "assay": "flow cytometry on 293T cells expressing the PD-1 form, labeled secondary antibody; control antibody"}, "[3]": {"biological_target": "N49Q mutant PD-1 expressed on 293T cells (PD-1-Flag) (human) (UniProt Q15116)", "sequence (Q15116 25-288 N49Q)": "as the sequence (Q15116 other isoform, or with tags, fused parts or gaps mutant) above, with Q34N, Q50N, Q92N counted along it", "assay": "flow cytometry on 293T cells expressing the PD-1 form, labeled secondary antibody; control antibody"}, "[4]": {"biological_target": "N58Q mutant PD-1 expressed on 293T cells (PD-1-Flag) (human) (UniProt Q15116)", "sequence (Q15116 25-288 N58Q)": "as the sequence (Q15116 other isoform, or with tags, fused parts or gaps mutant) above, with Q25N, Q50N, Q92N counted along it", "assay": "flow cytometry on 293T cells expressing the PD-1 form, labeled secondary antibody; control antibody"}, "[5]": {"biological_target": "N74Q mutant PD-1 expressed on 293T cells (PD-1-Flag) (human) (UniProt Q15116)", "sequence (Q15116 25-288 N74Q)": "as the sequence (Q15116 other isoform, or with tags, fused parts or gaps mutant) above, with Q25N, Q34N, Q92N counted along it", "assay": "flow cytometry on 293T cells expressing the PD-1 form, labeled secondary antibody; control antibody"}, "[6]": {"biological_target": "wild type (glycosylated) PD-1 expressed on 293T cells (PD-1-Flag) (human) (UniProt Q15116)", "sequence (Q15116 25-288)": "as the sequence (Q15116 other isoform, or with tags, fused parts or gaps mutant) above, with Q25N, Q34N, Q50N, Q92N counted along it", "assay": "flow cytometry on 293T cells expressing the PD-1 form, labeled secondary antibody; control antibody"}, "[7]": {"biological_target": "4NQ mutant (unglycosylated) PD-1 expressed on 293T cells (PD-1-Flag) (human) (UniProt Q15116)", "assay": "flow cytometry on 293T cells expressing the PD-1 variant, anti-mouse IgG-PE secondary, DAPI-negative population gated; percent of cells right of the dashed gate; 293T blank cells give 1.69"}, "[8]": {"biological_target": "N116Q mutant PD-1 expressed on 293T cells (PD-1-Flag) (human) (UniProt Q15116)", "assay": "flow cytometry on 293T cells expressing the PD-1 variant, anti-mouse IgG-PE secondary, DAPI-negative population gated; percent of cells right of the dashed gate; 293T blank cells give 1.69"}, "[9]": {"biological_target": "N49Q mutant PD-1 expressed on 293T cells (PD-1-Flag) (human) (UniProt Q15116)", "assay": "flow cytometry on 293T cells expressing the PD-1 variant, anti-mouse IgG-PE secondary, DAPI-negative population gated; percent of cells right of the dashed gate; 293T blank cells give 1.69"}, "[10]": {"biological_target": "N58Q mutant PD-1 expressed on 293T cells (PD-1-Flag) (human) (UniProt Q15116)", "assay": "flow cytometry on 293T cells expressing the PD-1 variant, anti-mouse IgG-PE secondary, DAPI-negative population gated; percent of cells right of the dashed gate; 293T blank cells give 1.69"}, "[11]": {"biological_target": "N74Q mutant PD-1 expressed on 293T cells (PD-1-Flag) (human) (UniProt Q15116)", "assay": "flow cytometry on 293T cells expressing the PD-1 variant, anti-mouse IgG-PE secondary, DAPI-negative population gated; percent of cells right of the dashed gate; 293T blank cells give 1.69"}, "[12]": {"biological_target": "wild type (glycosylated) PD-1 expressed on 293T cells (PD-1-Flag) (human) (UniProt Q15116)", "assay": "flow cytometry on 293T cells expressing the PD-1 variant, anti-mouse IgG-PE secondary, DAPI-negative population gated; percent of cells right of the dashed gate; 293T blank cells give 1.69"}}, "data": [{"substance": "control mouse IgG (antibody)", "values": [{"measurement": "MFI", "setting": "[1]", "value": 26, "unit": "MFI"}, {"measurement": "MFI", "setting": "[2]", "value": 28, "unit": "MFI"}, {"measurement": "MFI", "setting": "[3]", "value": 31, "unit": "MFI"}, {"measurement": "MFI", "setting": "[4]", "value": 106, "unit": "MFI"}, {"measurement": "MFI", "setting": "[5]", "value": 26, "unit": "MFI"}, {"measurement": "MFI", "setting": "[6]", "value": 52, "unit": "MFI"}, {"measurement": "Unit (%) (cells in the positive gate)", "setting": "[7]", "value": 1.53, "unit": "%"}, {"measurement": "Unit (%) (cells in the positive gate)", "setting": "[8]", "value": 2.37, "unit": "%"}, {"measurement": "Unit (%) (cells in the positive gate)", "setting": "[9]", "value": 2.73, "unit": "%"}, {"measurement": "Unit (%) (cells in the positive gate)", "setting": "[10]", "value": 17.6, "unit": "%"}, {"measurement": "Unit (%) (cells in the positive gate)", "setting": "[11]", "value": 3.25, "unit": "%"}, {"measurement": "Unit (%) (cells in the positive gate)", "setting": "[12]", "value": 10.7, "unit": "%"}]}]}
